Consider three substances from paper PMC6742228.

The assay addresses A/Puerto Rico/8/1934 (H1) HA (influenza A virus A/Puerto Rico/8/1934 (H1N1)) (UniProt P03452).

Consider MAb FI6 (antibody), for which the HA-pseudovirus neutralization titer (IC95), 293T cells is 0.11 µg/mL and the Plaque reduction titer (IC50), replicating virus on MDCK cells is 3.7 µg/mL.
With MAb C179 (antibody), the HA-pseudovirus neutralization titer (IC95), 293T cells worked out at 0.31 µg/mL and the Plaque reduction titer (IC50), replicating virus on MDCK cells amounted to 27.7 µg/mL.
In the case of MAb CR6261 (antibody), the HA-pseudovirus neutralization titer (IC95), 293T cells stood at 0.09 µg/mL.
